T1: mouse GITR (R&D Systems, biotinylated) (mouse, UniProt O35714 22-153, limits assumed, biotinylated)
T1 sequence (looked up): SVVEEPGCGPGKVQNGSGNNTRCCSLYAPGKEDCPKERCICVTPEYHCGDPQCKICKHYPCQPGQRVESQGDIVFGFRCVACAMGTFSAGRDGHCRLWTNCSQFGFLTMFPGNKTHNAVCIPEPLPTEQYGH

T2: mouse CD137 ligand on DO11.10 cells (mouse, UniProt P41274 1-309)
T2 construct: whole, on cells
T2 sequence (looked up): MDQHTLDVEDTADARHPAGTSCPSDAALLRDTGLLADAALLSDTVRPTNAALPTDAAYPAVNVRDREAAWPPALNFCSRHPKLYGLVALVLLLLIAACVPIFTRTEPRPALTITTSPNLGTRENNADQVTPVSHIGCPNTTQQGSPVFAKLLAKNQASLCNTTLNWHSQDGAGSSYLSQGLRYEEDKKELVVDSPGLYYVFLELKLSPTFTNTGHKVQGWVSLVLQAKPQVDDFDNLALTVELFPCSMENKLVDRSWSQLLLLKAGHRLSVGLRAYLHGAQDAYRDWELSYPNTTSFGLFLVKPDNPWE

B1: FS22m-063 in HeID1.3 mock mAb^2 format (bispecific antibody)
heavy: QVQLQESGPGLVRPSQTLSLTCTVSGSTFSGYGVNWVRQPPGRGLEWIGMIWGDGNTDYNSALKSRVTMLVDTSKNQFSLRLSSVTAADTAVYYCARERDYRLDYWGQGSLVTVSSASTKGPSVFPLAPSSKSTSGGTAALGCLVKDYFPEPVTVSWNSGALTSGVHTFPAVLQSSGLYSLSSVVTVPSSSLGTQTYICNVNHKPSNTKVDKKVEPKSCDKTHTCPPCPAPELLGGPSVFLFPPKPKDTLMISRTPEVTCVVVDVSHEDPEVKFNWYVDGVEVHNAKTKPREEQYNSTYRVVSVLTVLHQDWLNGKEYKCKVSNKALPAPIEKTISKAKGQPREPQVYTLPPSRDEPYWSYVSLTCLVKGFYPSDIAVEWESNGQPENNYKTTPPVLDSDGSFFLYSKLTVMNYRWELGNVFSCSVMHEALHNHYTQKSLSLSPG
light: DIQMTQSPASLSASVGETVTITCRASGNIHNYLAWYQQKQGKSPQLLVYNAKTLADGVPSRFSGSGSGTQYSLKINSLQPEDFGSYYCQHFWSTPRTFGGGTKLEIKRTVAAPSVFIFPPSDEQLKSGTASVVCLLNNFYPREAKVQWKVDNALQSGNSQESVTEQDSKDSTYSLSSTLTLSKADYEKHKVYACEVTHQGLSSPVTKSFNRGEC
notes: anti-mouse CD137 Fcab
B2: FS22-053-017 in HeID1.3 mock mAb^2 format (bispecific antibody)
heavy: QVQLQESGPGLVRPSQTLSLTCTVSGSTFSGYGVNWVRQPPGRGLEWIGMIWGDGNTDYNSALKSRVTMLVDTSKNQFSLRLSSVTAADTAVYYCARERDYRLDYWGQGSLVTVSSASTKGPSVFPLAPSSKSTSGGTAALGCLVKDYFPEPVTVSWNSGALTSGVHTFPAVLQSSGLYSLSSVVTVPSSSLGTQTYICNVNHKPSNTKVDKKVEPKSCDKTHTCPPCPAPELLGGPSVFLFPPKPKDTLMISRTPEVTCVVVDVSHEDPEVKFNWYVDGVEVHNAKTKPREEQYNSTYRVVSVLTVLHQDWLNGKEYKCKVSNKALPAPIEKTISKAKGQPREPQVYTLPPSRDELNPPYLFSNQVSLTCLVKGFYPSDIAVEWESNGQPENNYKTTPPVLDSDGSFFLYSKLTVYHWRWLEGNVFSCSVMHEALHNHYTQKSLSLSPG
light: DIQMTQSPASLSASVGETVTITCRASGNIHNYLAWYQQKQGKSPQLLVYNAKTLADGVPSRFSGSGSGTQYSLKINSLQPEDFGSYYCQHFWSTPRTFGGGTKLEIKRTVAAPSVFIFPPSDEQLKSGTASVVCLLNNFYPREAKVQWKVDNALQSGNSQESVTEQDSKDSTYSLSSTLTLSKADYEKHKVYACEVTHQGLSSPVTKSFNRGEC
notes: FS22-053-014 with D98E (IMGT, CH3); range 1-339 derived by counting; also called FS22-053-17
B3: mCD137-mFc-Avi (Fc fusion)
chain: VQNSCDNCQPGTFCRKYNPVCKSCPPSTFSSIGGQPNCNICRVCAGYFRFKKFCSSTHNAECECIEGFHCLGPQCTRCEKDCRPGQELTKQGCKTCSLGTFNDQNGTGVCRPWTNCSLDGRSVLKTGTTEKDVVCGPPVVSFSPSTTISVTPEGGPGGHSLQVL
notes: also called mouse CD137-mFc-Avi; mouse dimeric CD137; not shown: mouse IgG2a Fc domain (mIgG2a Fc)

Experiments:
[1] = target: mouse CD40 (R&D Systems, biotinylated) (mouse, UniProt P27512 24-193, limits assumed, biotinylated); test: BLI (Octet), biotinylated receptor on streptavidin sensors
Experimental: (§1) The specificity of the anti-mouse CD137 Fcabs for mouse CD137 was tested in HeID1.3 “mock” mAb² format and measured by BLI in an Octet QKe system by testing for binding of the Fcabs to other mouse TNFRSF receptors (CD40, OX40, GITR). […] Anti-mouse CD137 Fcabs in mock mAb² format were diluted 1:1 in kinetic buffer (PALL 18-1092) to a final concentration of at least 1 μM. Antigen-coated sensors were dipped into the mAb² solutions for 180 seconds followed by 180 seconds in 1×kinetic buffer. Antibodies for each of the TNFRSF receptors were used as positive controls.

[2] = target: T1, mouse GITR (R&D Systems, biotinylated); test: as above
Experimental: as §1

[3] = target: T3, mouse CD137, cell-surface (mouse, UniProt P20334 24-256); test: cell-based or functional assay
[4] = target: T3, mouse CD137, cell-surface; test: cell-based or functional assay; remark: listed apart in the source
mCD137-mFc-Avi = target: B3; test: SPR (Biacore T200)
[5] = target: T2, mouse CD137 ligand on DO11.10 cells; test: flow cytometry, anti mouse Fc detection
Experimental: In more detail, materials from the same production lot were mixed together and analysed for stability and purity by size-exclusion high-performance liquid chromatography (SE-HPLC), SDS polyacrylamide gel electrophoresis (SDS-PAGE), and size-exclusion chromatography with multi-angle light scattering (SEC-MALS). […] Cells were incubated with the CD137 antigens for 1 hour, and then a fluorescently-labelled anti mouse Fc fragment antibody was used to detect cell binding.

Chain of mouse CD40 (R&D Systems, biotinylated) (P27512 24-193 limits assumed): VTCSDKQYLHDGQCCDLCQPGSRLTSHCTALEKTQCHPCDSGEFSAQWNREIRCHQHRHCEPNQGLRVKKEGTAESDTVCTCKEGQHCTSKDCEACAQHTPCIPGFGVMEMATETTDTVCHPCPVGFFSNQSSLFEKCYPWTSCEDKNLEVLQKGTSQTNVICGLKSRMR

Binder | binding result [1] | binding result [2] | +XL EC50 (nM), mouse CD137 DO11.10 T cell activation assay [3] [nM] | +XL Emax (IL-2 pg/ml), mouse CD137 DO11.10 T cell activation assay [3] [pg/mL] | EC50 upon Protein L crosslinking, NF-κB luciferase assay (HEK.FRT.luc.mCD137) [4] [nM] | fold-change in activity upon crosslinking, NF-κB luciferase assay (HEK.FRT.luc.mCD137) [4] [fold] | fold decrease in binding strength against FS22-053-014 (mCD137-mFc-Avi) [fold] | binding result [5]
B1 | no binding (tested: at least 1 µM) | no binding (tested: at least 1 µM) | 0.39 | 24200 | 1.44 | 27 | – | –
B2 | – | – | 16.7 | 41000 | – | – | 2 | –
B3 | – | – | – | – | – | – | – | binds

— patent publication US20250346679A1 (INVOX PHARMA, published 2025)
